Here are results for 15 variants from the RNAGym collection of RNA variant scans (doi:10.1093/molbev/msab373).

Sequences and labels used below:
B1: Azoarcus group I ribozyme (parent)
chain: GUGCCUUGCGCCGGGAAACCACGCAAGGGAUGGUGUCAAAUUCGGCGAAACCUAAGCGCCCGCCCGGGCGUAUGGCAACGCCGAGCCAAGCUUCGGCGCCUGCGCCGAUGAAGGUGUAGAGACUAGACGGCACCCACCUAAGGCAAACGCUAUGGUGAAGGCAUAGUCCAGGGAGUGGCGAAAGUCACACAAACCGG

The variants in the series derive from B1. Description: reverse-splicing fitness (ratio to wild type); higher = more active; in vitro selection; Mg2+ level not given. In outline: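 An in vitro group I ribozyme library with randomized positions was T7-transcribed and gel-purified. In triplicate, 10 pmol RNA in EPPS pH 7.5 was reacted with 50 pmoles of a 30-nt RNA substrate for 1 h at 37 °C across several added MgCl2 levels (1–48 mM), then stopped with EDTA. Products were reverse transcribed from a substrate-complementary primer, PCR-amplified and sequenced (HiSeq 4000). Fitness is a variant's read proportion after selection over that before, normalised to wild type.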
As to GUGCCUUGCGCCGGGAAACCACGCAAGGGAUGGUGUCAAAUUCGGCGAAACCUAAGCGCCCGCCCGGGCGUAUGGCAACGCCGAGCCAAGCUUCGGCGCCUGCGCCGAUGCAGGUGUAGUGACUAGACGGCACCCACCUAAGGCAAACGCUAUGGUGAAGGCAUAGUCGAGGGAGUGGCGAAAGUCACACAAACCGG [A111C A120U C169G], the reverse-splicing fitness was determined as 0.0632.

Take GUGCCUUGCGCCGGGAAACCACGCAAGGGAUGGUGUCAAAUUCGGCGAAACCUAAGCGCCCGCCCGGGCGUAUGGCAACGCCGAGCCAAGCUUCGGCGCCUGCGCCGAUGCAGGUGUAGUGACUAGACGGCACCCACCUAAGGCAAACGCUAUGGUGAAGGCAUAGUCAAGGGAGUGGCGAAAGUCACACAAACCGG [A111C A120U C169A]: the reverse-splicing fitness amounted to 0.00479.

In the case of GUGCCUUGCGCCGGGAAACCACGCAAGGGAUGGUGUCAAAUUCGGCGAAACCUAAGCGCCCGCCCGGGCGUAUGGCAACGCCGAGCCAAGCUUCGGCGCCUGCGCCGAUGCAGGUGUAGUGACUAGACGGCACCCACCUAAGGCAAACGCUAUGGUGAAGGCAUAGUCUAGGGAGUGGCGAAAGUCACACAAACCGG [A111C A120U C169U], the reverse-splicing fitness came to 0.0792.

In the case of GUGCCUUGCGCCGGGAAACCACGCAAGGGAUGGUGUCAAAUUCGGCGAAACCUAAGCGCCCGCCCGGGCGUAUGGCAACGCCGAGCCAAGCUUCGGCGCCUGCGCCGAUGCAGGUGUAGAGACUAGACGGCACCCACCUAAGGCCAACGAUAUGGUGAAGGCAUAGUCUAGGGAGAGGCGAAAGUCACACAAACCGG [A111C A145C C150A C169U U176A], the reverse-splicing fitness came to 0.0151.

GUGCCUUGCGCCGGGAAACCACGCAAGGGAUGGUGUCAAAUUCGGCGAAACCUAAGCGCCCGCCCGGGCGUAUGGCAACGCCGAGCCAAGCUUCGGCGCCUGCGCCGAUGCAGGUGUAGAGACUAGACGGCACCCACCUAAGGCCAACGAUAUGGUGAAGGCAUAGUCUAGGGAGCGGCGAAAGUCACACAAACCGG [A111C A145C C150A C169U U176C]: the reverse-splicing fitness was found to be 0.0102. As for GUGCCUUGCGCCGGGAAACCACGCAAGGGAUGGUGUCAAAUUCGGCGAAACCUAAGCGCCCGCCCGGGCGUAUGGCAACGCCGAGCCAAGCUUCGGCGCCUGCGCCGAUGCAGGUGUAGAGACUAGACGGCACCCACCUAAGGCCAACGAUAUGGUGAAGGCAUAGUCAAGGGAGUGGCGAAAGUCACACAAACCGG [A111C A145C C150A C169A], the figure is 0.00829. As to GUGCCUUGCGCCGGGAAACCACGCAAGGGAUGGUGUCAAAUUCGGCGAAACCUAAGCGCCCGCCCGGGCGUAUGGCAACGCCGAGCCAAGCUUCGGCGCCUGCGCCGAUGCAGGUGUAGAGACUAGACGGCACCCACCUAAGGCCAACGAUAUGGUGAAGGCAUAGUCUAGGGAGUGGCGAAAGUCACACAAACCGG [A111C A145C C150A C169U], the reverse-splicing fitness is 0.0128.

GUGCCUUGCGCCGGGAAACCACGCAAGGGAUGGUGUCAAAUUCGGCGAAACCUAAGCGCCCGCCCGGGCGUAUGGCAACGCCGAGCCAAGCUUCGGCGCCUGCGCCGAUGCAGGUGUAGAGACUAGACGGCACCCACCUAAGGCCAACGAUAUGGUGAAGGCAUAGUCGAGGGAGUGGCGAAAGUCACACAAACCGG [A111C A145C C150A C169G]: the reverse-splicing fitness is 0.00874. As to GUGCCUUGCGCCGGGAAACCACGCAAGGGAUGGUGUCAAAUUCGGCGAAACCUAAGCGCCCGCCCGGGCGUAUGGCAACGCCGAGCCAAGCUUCGGCGCCUGCGCCGAUGCAGGUGUAGUGACUAGACGGCACCCACCUAAGGCAAACGCUAUGGUGAAGGCAUAGUCAAGGGAGAGGCGAAAGUCACACAAACCGG [A111C A120U C169A U176A], the reverse-splicing fitness worked out at 0.00319.

For GUGCCUUGCGCCGGGAAACCACGCAAGGGAUGGUGUCAAAUUCGGCGAAACCUAAGCGCCCGCCCGGGCGUAUGGCAACGCCGAGCCAAGCUUCGGCGCCUGCGCCGAUGCAGGUGUAGUGACUAGACGGCACCCACCUAAGGCAAACGCUAUGGUGAAGGCAUAGUCAAGGGAGGGGCGAAAGUCACACAAACCGG [A111C A120U C169A U176G], the reverse-splicing fitness was determined as 0.00232.

In the case of GUGCCUUGCGCCGGGAAACCACGCAAGGGAUGGUGUCAAAUUCGGCGAAACCUAAGCGCCCGCCCGGGCGUAUGGCAACGCCGAGCCAAGCUUCGGCGCCUGCGCCGAUGCAGGUGUAGUGACUAGACGGCACCCACCUAAGGCAAACGCUAUGGUGAAGGCAUAGUCAAGGGAGCGGCGAAAGUCACACAAACCGG [A111C A120U C169A U176C], the reverse-splicing fitness was 0.00293. As for GUGCCUUGCGCCGGGAAACCACGCAAGGGAUGGUGUCAAAUUCGGCGAAACCUAAGCGCCCGCCCGGGCGUAUGGCAACGCCGAGCCAAGCUUCGGCGCCUGCGCCGAUGCAGGUGUAGAGACUAGACGGCACCCACCUAAGGCCAACGCUAUGGUGAAGGCAUAGUCCAGGGAGUGGCGAAAGUCACACAAACCGG [A111C A145C], the figure is 0.768; as for GUGCCUUGCGCCGGGAAACCACGCAAGGGAUGGUGUCAAAUUCGGCGAAACCUAAGCGCCCGCCCGGGCGUAUGGCAACGCCGAGCCAAGCUUCGGCGCCUGCGCCGAUGCAGGUGUAGUGACUAGACGGCACCCACCUAAGGCAAACGCUAUGGUGAAGGCAUAGUCUAGGGAGCGGCGAAAGUCACACAAACCGG [A111C A120U C169U U176C], 0.0214; as for GUGCCUUGCGCCGGGAAACCACGCAAGGGAUGGUGUCAAAUUCGGCGAAACCUAAGCGCCCGCCCGGGCGUAUGGCAACGCCGAGCCAAGCUUCGGCGCCUGCGCCGAUGCAGGUGUAGUGACUAGACGGCACCCACCUAAGGCAAACGCUAUGGUGAAGGCAUAGUCUAGGGAGGGGCGAAAGUCACACAAACCGG [A111C A120U C169U U176G], 0.00263. Turning to GUGCCUUGCGCCGGGAAACCACGCAAGGGAUGGUGUCAAAUUCGGCGAAACCUAAGCGCCCGCCCGGGCGUAUGGCAACGCCGAGCCAAGCUUCGGCGCCUGCGCCGAUGCAGGUGUAGUGACUAGACGGCACCCACCUAAGGCAAACGCUAUGGUGAAGGCAUAGUCUAGGGAGAGGCGAAAGUCACACAAACCGG [A111C A120U C169U U176A], the reverse-splicing fitness stood at 0.0143.
